According to patent US10487118B2, “Factor involved in latent infection with herpes virus, and use thereof” (Virus Ikagaku Kenkyusho Inc., priority 2007, dated 2019):

Tests used:
mice [1] = test: Forced swimming test; type: in vivo
Experimental: (§1) SITH-1 having a glial fibrillary acidic protein (GFAP) promoter linked upstream of its open reading frame was injected into the brains of newborn mice using an adenovirus vector or a retrovirus vector. GFAP is a protein expressed specifically in glial cells such as astrocytes.
(§2) A tail suspension test and a forced swimming test were conducted to evaluate mental disorders; these tests are commonly used to observe patients with depression or manic-depressive illness. Specifically, mice into which SITH-1 was transferred using an adenovirus vector were subjected to a tail suspension test. […] Subsequently, mice into which SITH-1 was transferred using a retrovirus vector were subjected to a forced swimming test.

mice [2] = test: Tail suspension test; type: in vivo; details: SITH-1 transferred using adenovirus vector, GFAP promoter, injected into brains of newborn mice
Experimental: as §1, §2

[3] = molecular target: T1, calcium-signal modulating cyclophilin ligand (CAML) (Homo sapiens, UniProt P49069); test: Binding of SITH-1 to host protein (yeast two-hybrid, in vitro pull-down, co-precipitation); details: yeast two-hybrid with human fetal brain cDNA library; GST pull-down; co-precipitation in 293T cells
T1 construct: made in house; host or cells: yeast (two-hybrid prey from a human fetal brain cDNA library); E. coli (pull-down); 293T cells (transfected, co-precipitation)
T1 sequence (P49069 1-296): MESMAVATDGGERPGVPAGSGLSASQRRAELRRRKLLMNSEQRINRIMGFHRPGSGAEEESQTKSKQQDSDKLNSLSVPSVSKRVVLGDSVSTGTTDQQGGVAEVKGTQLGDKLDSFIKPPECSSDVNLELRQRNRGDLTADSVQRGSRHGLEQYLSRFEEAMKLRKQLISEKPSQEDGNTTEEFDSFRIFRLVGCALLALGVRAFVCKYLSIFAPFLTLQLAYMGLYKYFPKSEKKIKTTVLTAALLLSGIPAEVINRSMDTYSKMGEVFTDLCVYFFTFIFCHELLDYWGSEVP
Experimental: To study the function of the protein SITH-1, a host protein to which the protein SITH-1 would bind within cells was identified. This was performed by screening of a human fetal brain cDNA library by means of yeast two-hybrid assay with the protein SITH-1 used as a bait.

mice [4] = test: Startle response (prepulse inhibition); type: in vivo; details: SITH-1 transferred using adenovirus vector
Experimental: as §1
The present inventors also measured a prepulse inhibition in order to check for any abnormality in a startle response, which abnormality is to be found in patients with manic-depressive illness and schizophrenia. Specifically, mice into which SITH-1 was transferred using the adenovirus vector were evaluated for a startle response by measuring the prepulse inhibition.

mice [5] = test: Motor activity in terms of wheel running activity; type: in vivo; details: vs EGFP control mice
Experimental: Next, an open reading frame of SITH-1 was linked downstream of a GFAP promoter, and expressed in glial cells of mice using an adenovirus vector; three weeks later, the mice were measured for their motor activity in terms of wheel running activity.
Subsequently, an open reading frame of SITH-1 was linked downstream of a GFAP promoter, and expressed in glial cells of mice using a lentivirus vector; eight weeks later, the mice were measured for their motor activity in terms wheel running activity.

[6] = test system: astrocyte-like glial cell line (U373); test: Intracellular calcium concentration measured with Fura2 after thapsigargin stimulation; type: cell-based; details: SITH-1 transferred via retrovirus vector into U373, thapsigargin (TG) stimulation, vs vector only
Experimental: In another experiment, two samples were prepared; one sample was prepared by transferring SITH-1 into an astrocyte-like glial cell line (U373) via a retrovirus vector, and the other sample was prepared by introducing only the vector into U373. Each sample was stimulated with thapsigargin (TG), and an intracellular calcium concentration was measured using Fura2.

[7] = test system: astrocyte-like glial cell line (U373); test: Fluorescent antibody staining of CAML in SITH-1-expressing U373 cells; type: cell-based; details: SITH-1 expressed in U373 vs untreated U373 cells
Description: CAML is a protein that has been reported to show strong expression in lymphocytes and in a brain, and it is known that CAML has ability to increase an intracellular calcium concentration. Thus, in order to see whether the protein SITH-1 would be mediated by CAML to increase the intracellular calcium concentration, both an astrocyte-like glial cell line (U373) in which SITH-1 had been expressed and untreated U373 cells were stained by the fluorescent antibody technique using anti-SITH-1 antibodies and anti-CAML antibodies.

B1: SITH-1: protein expressed specifically during latent infection with HHV-6; approximately 17.5 kDa, 159 amino acids, SEQ ID NO: 1 (protein)
chain: MGYEEKVSATGKTRLKILACLIVLILAAAITMLTLEIISNQKRTTTDLEAVTVALKHVSTSLASCTESTTSVHTDSVTSQPTKNKESRKKIEGKSPSWVQALTTASGIILLFCIMMIFITCSWTTEKDTEKSEVQSYASSVETLDSLNEAIIPKTEMNV
modifications: Human herpesvirus 6
In the case of B1, the immobile time (mice [1]; retrovirus vector at HIGH titer, vs EGFP control mice) is reported as “longer immobile time”, the immobile time (mice [1]; retrovirus vector at LOW titer) is reported as “shorter immobile time” and the immobile time (mice [2]) is reported as “markedly shorter immobile time”. For the same molecule, the “binding to CAML” value [3] was “bind strongly”, the prepulse inhibition (mice [4]) was “markedly lower prepulse inhibition” and the “motor activity (wheel running activity)” value (mice [5]; adenovirus vector, three weeks later) was “motor activity enhanced”. For the same molecule, the “motor activity (wheel running activity)” value (mice [5]; lentivirus vector, eight weeks later) was “motor activity suppressed”, the intracellular calcium concentration [6] was “considerably higher” and the “amount of CAML” value [7] was “more CAML was found than in the untreated U373 cells”.
